Data on 2 substances can be found in paper PMC3998888.

The target in the experiment is ALG-1(anti) (C. elegans (endogenous in whole animals)). Nature of the experiment: co-IP; ALG-1 immunoprecipitated with a custom ALG-1-specific polyclonal antibody (Anaspec) from whole protein lysate of wild type or alg-1(anti) animals; precipitate probed by Western blot with anti-ALG-1, anti-DCR-1 and anti-AIN-1; signals quantified as ratios to ALG-1 and normalised to wild type. (In general: Immunoblotting shows a protein as a band on a membrane.)

Consider AIN-1 (GW182) (natural protein), for which the fold decrease in co-precipitated AIN-1 against wild type ALG-1 amounted to 3 fold and the fold decrease in co-precipitated AIN-1 against wild type ALG-1 (average of biological replicates) stood at 2 fold.
Take “DCR-1 (Dicer) (from UniProt P34529 1-1910) (enzyme)”: the fold increase in co-precipitated DCR-1 against wild type ALG-1 was determined as 4 fold.
